Measured values: IntAct's records for PubMed 16905657

B1: Clathrin heavy chain 1 (Arabidopsis thaliana (Mouse-ear cress)), Q0WNJ6 (parent)
chain: MAAANAPIIMKEVLTLPSVGIGQQFITFTNVTMESDKYICVRETAPQNSVVIIDMNMPMQPLRRPITADSALMNPNSRILALKAQVPGTTQDHLQIFNIEAKAKLKSHQMPEQVAFWKWITPKMLGLVTQTSVYHWSIEGDSEPVKMFDRTANLANNQIINYKCSPNEKWLVLIGIAPGSPERPQLVKGNMQLFSVDQQRSQALEAHAASFAQFKVPGNENPSILISFASKSFNAGQITSKLHVIELGAQPGKPSFTKKQADLFFPPDFADDFPVAMQVSHKFNLIYVITKLGLLFVYDLETASAIYRNRISPDPIFLTSEASSVGGFYAINRRGQVLLATVNEATIIPFISGQLNNLELAVNLAKRGNLPGAENLVVQRFQELFAQTKYKEAAELAAESPQGILRTPDTVAKFQSVPVQAGQTPPLLQYFGTLLTRGKLNSYESLELSRLVVNQNKKNLLENWLAEDKLECSEELGDLVKTVDNDLALKIYIKARATPKVVAAFAERREFDKILIYSKQVGYTPDYMFLLQTILRTDPQGAVNFALMMSQMEGGCPVDYNTITDLFLQRNLIREATAFLLDVLKPNLPEHAFLQTKVLEINLVTFPNVADAILANGMFSHYDRPRVAQLCEKAGLYIQSLKHYSELPDIKRVIVNTHAIEPQALVEFFGTLSSEWAMECMKDLLLVNLRGNLQIIVQACKEYCEQLGVDACIKLFEQFKSYEGLYFFLGSYLSMSEDPEIHFKYIEAAAKTGQIKEVERVTRESNFYDAEKTKNFLMEAKLPDARPLINVCDRFGFVPDLTHYLYTNNMLRYIEGYVQKVNPGNAPLVVGQLLDDECPEDFIKGLILSVRSLLPVEPLVAECEKRNRLRLLTQFLEHLVSEGSQDVHVHNALGKIIIDSNNNPEHFLTTNPYYDSKVVGKYCEKRDPTLAVVAYRRGQCDEELINVTNKNSLFKLQARYVVERMDGDLWEKVLTEENEYRRQLIDQVVSTALPESKSPEQVSAAVKAFMTADLPHELIELLEKIVLQNSAFSGNFNLQNLLILTAIKADPSRVMDYINRLDNFDGPAVGEVAVDAQLYEEAFAIFKKFNLNVQAVNVLLDNVRSIERAVEFAFRVEEDAVWSQVAKAQLREGLVSDAIESFIRADDTTQFLEVIRASEDTNVYDDLVRYLLMVRQKVKEPKVDSELIYAYAKIERLGEIEEFILMPNVANLQHVGDRLYDEALYEAAKIIYAFISNWAKLAVTLVKLQQFQGAVDAARKANSAKTWKEVCFACVDAEEFRLAQICGLNIIIQVDDLEEVSEYYQNRGCFNELISLMESGLGLERAHMGIFTELGVLYARYRYEKLMEHIKLFSTRLNIPKLIRACDEQQHWQELTYLYIQYDEFDNAATTVMNHSPEAWEHMQFKDIVAKVANVELYYKAVHFYLQEHPDIINDLLNVLALRLDHTRVVDIMRKAGHLRLIKPYMVAVQSNNVSAVNEALNEIYAEEEDYDRLRESIDLHDSFDQIGLAQKIEKHELVEMRRVAAYIYKKAGRWKQSIALSKKDNMYKDCMETASQSGDHDLAEQLLVYFIEQGKKECFATCLFVCYDLIRPDVALELAWINNMIDFAFPYLLQFIREYSGKVDELIKDKLEAQKEVKAKEQEEKDVMSQQNMYAQLLPLALPAPPMPGMGGGGYGPPPQMGGMPGMSGMPPMPPYGMPPMGGY
partner: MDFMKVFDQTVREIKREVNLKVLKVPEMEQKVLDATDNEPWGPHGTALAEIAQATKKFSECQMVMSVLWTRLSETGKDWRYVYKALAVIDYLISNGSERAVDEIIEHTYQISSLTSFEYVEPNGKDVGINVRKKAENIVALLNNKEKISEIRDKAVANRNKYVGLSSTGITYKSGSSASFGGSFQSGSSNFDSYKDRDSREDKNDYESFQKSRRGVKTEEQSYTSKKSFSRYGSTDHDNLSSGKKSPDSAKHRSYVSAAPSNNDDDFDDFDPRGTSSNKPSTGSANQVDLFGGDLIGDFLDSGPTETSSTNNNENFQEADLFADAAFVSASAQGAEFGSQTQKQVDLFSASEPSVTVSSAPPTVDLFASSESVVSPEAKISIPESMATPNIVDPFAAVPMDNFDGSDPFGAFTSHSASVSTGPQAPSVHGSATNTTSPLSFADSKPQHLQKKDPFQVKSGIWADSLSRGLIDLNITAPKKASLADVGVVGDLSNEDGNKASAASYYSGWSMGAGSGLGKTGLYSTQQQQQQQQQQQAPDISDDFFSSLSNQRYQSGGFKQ

Variants of: B1
Details: with epn1_arath EPSIN1, Q8VY07

| effect of a mutation on the interaction | Variant |
| --- | --- |
| disrupting interaction | L470R |
